We go through 41 sequences from the nanobody polyreactivity screen of Harvey et al. (2022).

The series is described as follows: yeast display, Sf9 membrane polyspecificity reagent, FACS + sequencing; frameworks hold sequencing errors. The method in brief: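 Genes from sorted yeast were amplified by colony PCR, read by MiSeq 2 × 250 sequencing and filtered on CDR length. These cells carried a synthetic nanobody library in Saccharomyces cerevisiae BJ5465 and were sorted by FACS into low and high (top ~1%) gates on anti-HA and streptavidin fluorescence. Polyreactivity is labelled according to the gate of origin.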
“QVQLVESGVGLVQAGGSLRLSCAASGSTFDVYDMGWYRQAPGKERELVASISWDGDRTYYADSVKGRFTISRDNAKNTVYLQMKSLKPEDTAVYYCAATLRPYSSFPNRYGYWGQGTQVSVSS”: the “polyreactivity (PSR sort gate)” value was “low polyreactivity”. For “QVQLVESGVGLVQAGGSLRLSCAASGSTFGGNAMGWYRQAPWKERELVADITFSGGSTSYAHSVKGSFTISRDNAKNTVYLLMNRLKPEDTAVYYCNRDYPEIIVAGLDFWGQGTQLTVSS”, the “polyreactivity (PSR sort gate)” value is given as “low polyreactivity”. Consider “QVQLVESGVGLVQAGGSLRLSCAASGSTFITYAMGWYRQAPGKERELVAAISTGGSTYYADSVKGRFTISRDNAKNTVYLQMNSLKPEDTAVYYCNAYSSSRGSTLQYSLQYDYWGQGTQVTVSS”, for which the “polyreactivity (PSR sort gate)” value is on record as “low polyreactivity”.

On to “QVQLVESGVGLVQAGGSLRLSCAASGSTFLTNAMGWNRQAPGKERELVAAINWRGDSTYYADSVKGRFTISRDNAKNTVYLQMNSLKPEDTAVYYCAAKYNHVTDEYDYWGQGTQVTVSS”, for which the “polyreactivity (PSR sort gate)” value is recorded as “high polyreactivity”. Take “QVQLVESGVGLVQAGGSLRLSCAASGSTFQWYAMGWYIQAPGKERELVAAINKSGGTTYYADSVKGRFTISRDNAKNTVYLLMNSLKPEDTAVYYCATDTPVVYQPGNMDYWGQGTQVTVSS”: the “polyreactivity (PSR sort gate)” value is listed as “low polyreactivity”. In the case of “QVQLVESGVGLVQAGGSLRLSCAASGSTFRGYAMGWYRQAPGKERELVAAISSSGGRTYYAYSVKGRFTISRDNAKNTVYLQMNSLKPEDTAVYYCNAASKNSVRYAYQNYDYWGQGTQVTVSS”, the “polyreactivity (PSR sort gate)” value is reported as “high polyreactivity”.

As to “QVQLVESGVGLVQAGGSLRLSCAASGYTFRTNVMGWYRQAPGKERELVATINWRGGSTYYADSVKGRFTISRDNAKNTVYLQMNSLKPEDTAVYYCAADPGPYYDWGYDYWGQGTQVTVSS”, the “polyreactivity (PSR sort gate)” value is on record as “low polyreactivity”.

In the case of “QVQLVESGVGLVQAGGSLRLSCADSGSNFRYTMGCYRQAPWKERELVAAINRGASTYYADSVKGRFTISRDNAKKTVYLQMNSLKPVDNAVYYCAASVGTQGYHGDYWGQGTQVTVSS”, the “polyreactivity (PSR sort gate)” value was “high polyreactivity”. Next, “QVQLVESGVGLVQAGGSLRLSCAGSGFNFIANAMGWYRQAPGKERELVAAISDGGSTYYADSVKGRFTISRDNAKNTVYLQMNSLKPEDTAVYYCAKDVTWAGHYDYWGQGTQVTVSS”: “low polyreactivity”; “QVQLVESGVGLVQAGGSLRLSCAPSGFTFGRYAMGWYRQAPGKEREFVASISRSGGSTNYADSVKGRFTISRDNAKNTVYLQMNSLKPEDTAVYYCARDSWLHYRWGYDYWGQGTQVTVSS”: “high polyreactivity”; “QVQLVESGVGLVQAGGSLRLSSAASGFTFVSNDMGWYRQAPGKERELVAAIRYRGGDTYYADSVKGRFTISRDNAKNTVYLQMNSMKPEDTAVYYCAVDVATYTAGWYYHGYDYWGQGTQVTVSS”: “low polyreactivity”.

With “QVQLVESGVGLVQAGGSLRLSSADSGRTSPGNAMGWYRQAPGKETELVAAINVSGGSTYYADSVKGRFTISRDNAKNTVYLQMNSLKPEDTAVYDCATDTGYPYSYDLYDSYYWGQGTQVTVSS”, the “polyreactivity (PSR sort gate)” value was “low polyreactivity”. Next, “QVQLVESGVGLVQAGGSLRVSCAASGSICNYYAMVWYRQAPGKERELVATISSGGNTKYADSVKRRFTISRDNAKNTVSLQMNSQKPEDTAVYYCAARWQHSGYRDRYWYDYWGQGTQVTVSS”: “low polyreactivity”; “QVQLVESGVGLVQAGGSLSLSCAASGRTFAYNAMGWYRQAAGKERELVAAINGDGGSTYYADSVKGRFTISRDNAMNTDYLQMISLKPEDTAVYYCAADLKYDGAYDYWGQGTQVTVSS”: “high polyreactivity”. The value for “QVQLVESGVGLVQSGGSLRLRCAASGFTFVSYALGWYRQAPGKERELVASISKRGGTTYYADSVKGRFTISRENAKNTVYLQMNSLKPEDTAVYYCNARDTRRYVTYDSGYDYWGQGTQVTVSS” was “high polyreactivity”; that for “QVQLVESLVGLVQAVGSLRLSCAAYGFIFAFDSMGCYRHAPRKERELVAAIRTGGSKNYADSVKGRFTISRDNAKTTVYLQMNSLKPEDTAVYNCAANGRVGFWRWERDYWGQGTQVTVSS” was “high polyreactivity”.

In the case of “QVQLVESRGGIVQAGGSLRLSCAASGFTFYFYAKGWYRQAPGKERELVAGISRGSRTNYADSVKGRFTISRDNAKNTVYLQMNSLKPEDTAVYYCAAEVSYWGLGTQVTVSS”, the “polyreactivity (PSR sort gate)” value is given as “low polyreactivity”. Next, “QVQLVESRGGKVQAVGSLRLSCAASGLTFYTYAMGWYRQEPGKDRELVAAIRYRGGRSNYADSVKGRFTISRDNANNTVYLQMNSLKPEDTAVYYCAARSILVTQAYGYWGQGTQVNVSS”: “high polyreactivity”; “QVQLVESRGGLVQAEGSLRLSCAASGYTFTSNDMGWYRQAPGKERELVAAITWSGGTTYYADSVKGRFTISRDNAKNTVYLQMNSLKPEDTSVYYFAADVSLVYPYSYRYYYWGQGTQVTVSS”: “low polyreactivity”. The value for “QVQLVESRGGLVQAGGRLRLSCAASGSIFDWYAMGWYRQAPGKERELVADITWSGDSTYYADSVKGRFTISRDNAKNTVYLQMNSLKPEDTAVYYCAADIWFNTYYEYDYWGQGTQVTVSS” was “high polyreactivity”; that for “QVQLVESRGGLVQAGGSHRLSCAASGITILQYAMGWYRQAPRKERELVAAISRRGGNTYYADSVKGRFTISRDNAKNTVYLQMNSLKPEDTAVYYCAALSSFQSEYDYWGQGTQLTVSS” was “high polyreactivity”. As for “QVQLVESRGGLVQAGGSIRLSCAASGITFGSYAMGWYRQAPGKERELVAAIDTSGDDTYYADSVKGRFTISRDNAKNTVYLQMNSLNPEDTAVYYCNAVSTASDEYDYWGQGTQVTVSS”, the “polyreactivity (PSR sort gate)” value is “low polyreactivity”.

With “QVQLVESRGGLVQAGGSLGLSCAASGRIFSGYAMGWYRKAPGKERELVAAISGSGGTTYYADSVKGRFTISRDNAKNTVYLQINSLKPEDTAVYYCAVVIGVGYGYYYWGQGTQVTVSS”, the “polyreactivity (PSR sort gate)” value was “low polyreactivity”.

Take “QVQLVESRGGLVQAGGSLRISCAASGNIFLDYVMGWSRQAPGKERELVAAINSGGSTYYADSVKGRFTISSDNAKNTVYLQMNSLKPEDTAVYYCAADDYYKFDYWGQGTQVTVSS”: the “polyreactivity (PSR sort gate)” value was “low polyreactivity”. Regarding “QVQLVESRGGLVQAGGSLRLSCAASGFIFNYYVMGRYRQAPGKERELVAGITKRGDRTYYADSVKGRFTISRDNAKNTVYLQMNSLKPEDTAVYYCAALARSFANSYGYWGQGTQVTVSS”, the “polyreactivity (PSR sort gate)” value is recorded as “high polyreactivity”. Consider “QVQLVESRGGLVQAGGSLRLSCAASGFIFSYYAMGWYRQAPGKERELVAAISGLGGSTYYADSVKGRFTISRDNAKNTVYLQMNSLKPEDTAVYYCAATTLRYYRHGDYWGQGTQVTVSS”, for which the “polyreactivity (PSR sort gate)” value is on record as “low polyreactivity”. On to “QVQLVESRGGLVQAGGSLRLSCAASGFIFVSYTMGWYRQAPGKERDLVATITLSDGSTYYADSVQGRFTISRDNAKNTVYLQMNSLKPEDTAVYSGNKDKVVVRYDYWGQGTQVTVSS”, for which the “polyreactivity (PSR sort gate)” value is “low polyreactivity”. With “QVQLVESRGGLVQAGGSLRLSCAASGFIITQYAMGWYRQAPGKERELVAAISGRGGSTYYADSVKGRFTISRDNAKNTVYLQMNSLIPEDTAVYYCNTVRIGPPQDYDYWGQGTQVTVSS”, the “polyreactivity (PSR sort gate)” value is reported as “high polyreactivity”. As for “QVQLVESRGGLVQAGGSLRLSCAASGFTFDIYAMGWYRQAPGKERELVAAINYSGARTYYADSVKGRFTISRDNAKNTVYLQMNSLNPEDTAVYYCNRAARIKYDYWGQGTQVTVSS”, the “polyreactivity (PSR sort gate)” value is given as “high polyreactivity”.

Take “QVQLVESRGGLVQAGGSLRLSCAASGFTFIGYAMGWYRPEPGKERELVAPITQSGGSTFYADSVKGRFTISRENAKNTVYLQMNSLKPEDTAVDDCNAYRKFRYCGQGTQVTVSS”: the “polyreactivity (PSR sort gate)” value is “low polyreactivity”. Consider “QVQLVESRGGLVQAGGSLRLSCAASGFTFSWYAMGWYRQAPGKERELVAAITRSGGSTNYADSVKGRFTMSRDNAKNTVYLQMNSLKPEDTAVYYCAARYSPGFGYWGKGTQVTVSS”, for which the “polyreactivity (PSR sort gate)” value is “high polyreactivity”. With “QVQLVESRGGLVQAGGSLRLSCAASGITSRFYVMGWYRKAPGKERELVAAISTRGTSTYYADSVKGRFTLSRDNAKNTVYLQMNSLKPEDTAVYYCAAVGGYPYQYPYGSWGQGTQVTVSS”, the “polyreactivity (PSR sort gate)” value is given as “high polyreactivity”. In the case of “QVQLVESRGGLVQAGGSLRLSCAASGPTFLINAMGCYRQAPGKETELVAEITGRGSSTYYADSVKGRFTISRDNAINTVYLQMNSLKAEDTAVYYCNAVLRKMTYDYWGQGTQVTVSS”, the “polyreactivity (PSR sort gate)” value is listed as “high polyreactivity”. Next, “QVQLVESRGGLVQAGGSLRLSCAASGRIFVVYTMGWYRQAPGKERELVAAISWRGGTTYYADSVKRRFTISRDNAKTTVYLQMTSLIPEDTAVSYCATREWSPRGSYDYSGQGTQVTVSS”: “high polyreactivity”.

With “QVQLVESRGGLVQAGGSLRLSCAASGRTFTLNAMGWYRQAPGKERELVARIDWRGITYADSVKGRFTISRDNAKNTVYLQMNSLKPEDTAVYYCAADYVQGFGFYYQWHYDYWGQGTQVTVSS”, the “polyreactivity (PSR sort gate)” value was “low polyreactivity”. Next, “QVQLVESRGGLVQAGGSLRLSCAASGSIFYSNFMGWYRPAPGKERELVARITDAGSTNYADSVKGRFTISRDNAKNTVYLQMNSQKPEDTAVYYCNARLVIYTYDYWGQGTQVTVSS”: “low polyreactivity”; “QVQLVESRGGLVQAGGSLRLSCAASGSTFSANTMGWNRQAPGKERELVAGITNTGDTYYADSVKGRFTLSRDNAKNTVYLQMNSLKPEDTAVYYCAADSWRLTDGAYWSTVYYWGQGNQVTVSS”: “low polyreactivity”; “QVQLVESRGGLVQAGGSLRLSCAASGSTFYFYDMGLYRQAPGKERELVGAISSSGGDTYYADSVKGRFTISRDNAKNTVYLQMNSLKPEDTAVYYCAAGQLYSGYEYWGQGTQVTVSS”: “low polyreactivity”. With “QVQLVESRGGLVQAGGSLRLSCAAYGFTFPNNAMGWNRQAPGKERELVAAITWSGRSTYADSVKGRFTISRDNAKNTVYLQMNSLKPEDTAVDYCYTRGTYLSKTLPSAYDYWGQGTQVIVSS”, the “polyreactivity (PSR sort gate)” value is on record as “low polyreactivity”. On to “QVQLVESRGGLVQAGGSLRLSCADSGRIFWYYDMGCYRQAPWKDRELVAAITSGGRTYYADYVKGRFTISRDNAKNTVYLQMNSLKPEDTAVYYCAAEGFYTSGSPYSGGLDYWGQGTQVTVSS”, for which the “polyreactivity (PSR sort gate)” value is reported as “low polyreactivity”.

“QVQLVESRGGLVQAGGSLRLSCAPSGSTFHYYAMGWYRQAQGKERELDAAISDRDGGTFYADSVKGRFTISRDNATNTVYLQINSLKPEDTAVYYCYARKRGARFILGYDYWGQGPQVTVSS”: the “polyreactivity (PSR sort gate)” value is on record as “low polyreactivity”.
